# T1: His6::RhaR (1-159*) (Aspergillus nidulans (cDNA from strain AR198)) (UniProt A0A0A1I536)
# T1 sequence: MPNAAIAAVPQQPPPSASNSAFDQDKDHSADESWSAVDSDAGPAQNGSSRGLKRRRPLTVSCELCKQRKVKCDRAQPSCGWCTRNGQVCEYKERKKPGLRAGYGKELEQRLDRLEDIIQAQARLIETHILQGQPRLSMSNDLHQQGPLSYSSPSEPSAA
# T2: His6::RhaR (1-159*) (Aspergillus nidulans (cDNA from strain …, UniProt A0A0A1I536))
# T2 sequence: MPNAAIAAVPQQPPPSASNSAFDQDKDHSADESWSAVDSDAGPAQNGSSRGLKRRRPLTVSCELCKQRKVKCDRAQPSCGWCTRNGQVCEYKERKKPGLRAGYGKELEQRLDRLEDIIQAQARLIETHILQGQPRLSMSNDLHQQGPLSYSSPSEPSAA
# Columns and labels:
# [1] = target: T1, His6::RhaR (1-159*) (Aspergillus nidulans (cDNA from strain AR198)); experiment: EMSA; settings: 25 mM HEPES pH 7.9, 50 mM KCl, 5 mM MgCl2, 1 mM DTT, 0.1 mM EDTA, 1 ug salmon sperm DNA, 20 ul, 4 C 30 min; 5-8% native PAGE in 0.5x TBE at 4 C, ethidium …
# [2] = target: T2, His6::RhaR (1-159*); experiment: EMSA; 25 mM HEPES pH 7.9, 50 mM KCl, 5 mM MgCl2, 1 mM DTT, 0.1 mM EDTA, 1 ug salmon sperm DNA, 20 ul, 4 C 30 min; 5-8% native PAGE in 0.5x TBE at 4 C, ethidium bromide; settings: protein: recombinant; tags: N-terminal His6 (pQE-80L); chain copies: 2; blunt
Molecule,binding [1],binding result [2]
AGATCTTCTCTGGGGAAGATCGACCGACCTGGTCCTGCAGAGCTCCAAGGCTTCCTCTCAGAAAGCCGATTAGTAGAAGCGGAGTCAAAGCAGGGTCAAGACGGACAATTAGAAGCCATGAATGGCGGATCCCAGCCCATGATCGCATACTGTGATCCAAAATCGACATAACTAAGTCACTTCCCTTCGCTTGTATCTGCCCAGCCATCCAACAACTCTA (double strand) [rhaAp 219 bp mut1],binds more weakly,
35-mer wild type (dsDNA) DNA 1: AGATCTTCTCGGGGGAAGATCGACCGACCTGGTCC DNA 2: GGACCAGGTCGGTCGATCTTCCCCCGAGAAGATCT,,binds
35-mer mut1 mut2 (dsDNA) DNA 1: AGATCTTCTCTGGGGAAGATCGACAGACCTGGTCC DNA 2: GGACCAGGTCTGTCGATCTTCCCCAGAGAAGATCT,,no binding

# Reference: paper PMC4245848, “The Aspergillus nidulans Zn(II)2Cys6 transcription factor AN5673/RhaR mediates L-rhamnose utilization and the production of α-L-rhamnosidases”
